“Also recorded” adds a separate entry of the source.
Legend:
[1] = target: T1, PR3 (Homo sapiens, UniProt P24158); assay: In vitro IGFBP-3 proteolysis by PR3, Western immunoblotting; type: biochemical; conditions: for inhibition of PR3-induced IGFBP-3 proteolysis (Western immunoblot, in words): FIG. 8 and 9A
T1 sequence (P24158 28-248): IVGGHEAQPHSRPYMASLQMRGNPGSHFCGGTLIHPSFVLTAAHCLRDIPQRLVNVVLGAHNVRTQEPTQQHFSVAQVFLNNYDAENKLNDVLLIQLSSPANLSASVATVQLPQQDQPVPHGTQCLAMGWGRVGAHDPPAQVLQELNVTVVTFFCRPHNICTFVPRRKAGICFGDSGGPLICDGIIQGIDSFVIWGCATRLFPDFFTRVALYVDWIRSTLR
Procedure: FIG. 4A-B. A, increased serum PR3 and IGFPR-3 proteolysis in high fat diet (HFD) mice. The increased IGFBP-3 proteolytic fragments and PR3 were detected in HFD compared with chow diet (CD) fed mice by Western immunoblotting using mouse IGFBP-3 or PR3 specific antibodies. […] IGFBP-3 proteolytic fragments were detected in recombinant IGFBP-3 (100 ng) and PR3 (500 ng) treated samples by Western immunoblotting.
FIG. 8. […] Recombinant IGFBP-3 (100 ng) was proteolyzed by treatment with […] PR3 for 60 min. at 37° C. (lane 2).
(§1) FIG. 9A-C. Inhibitory effect of the small peptide on NSP-induced IGFBP-3 proteolysis. […] Recombinant IGFBP-3 (100 ng) was proteolyzed by treatment with 100 nM PR3 for 60 min at 37° C. (lane 3). […] B. In vitro IGFBP-3 proteolysis by NE and CG. […] Recombinant IGFBP-3 (100 ng) was proteolyzed by treatment with NE (70 nM) and CG (200 nM) for 20 min. at 37° C. The treated samples were subject to Western immunoblotting using polyclonal IGFBP-3 antibodies. NE and CG proteolyze IGFBP-3 (lanes 2 and 7). […] C. The sequence of small inhibitory peptide (LIRCAML). Putative small inhibitory peptide binding site on PR3 ([…]) and NE ([…]), of which sequences are well conserved in both PR3 and NE.
Since it has been reported that PR3 appears to contribute to progression of chronic inflammatory diseases, we characterized PR3 as a specific IGFBP-3 protease in obese condition. The experiments were carried out using recombinant PR3 and IGFBP-3, and Western immunoblotting with IGFBP-3 specific antibody.
This peptide and/or suitable variants thereof can thus be used to treat individuals with chronic inflammation (obesity)-induced insulin resistance.

[2] = target: T2, CG (Homo sapiens, UniProt P08311); assay: In vitro IGFBP-3 proteolysis by CG, Western immunoblotting; type: biochemical; conditions: recombinant IGFBP-3 100 ng; CG 200 nM, 20 min at 37° C.; FIG. 9B
T2 sequence (P08311 21-244): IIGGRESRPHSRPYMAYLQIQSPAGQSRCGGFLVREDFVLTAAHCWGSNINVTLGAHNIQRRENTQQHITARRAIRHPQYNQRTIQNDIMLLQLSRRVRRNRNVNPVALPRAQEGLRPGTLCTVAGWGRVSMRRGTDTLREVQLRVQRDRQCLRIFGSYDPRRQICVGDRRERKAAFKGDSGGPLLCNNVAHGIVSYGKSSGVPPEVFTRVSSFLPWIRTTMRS
Procedure: as §1

[3] = test system: HFD C57BL/6 mice; assay: Insulin tolerance test (ITT) in HFD-induced obese mice (Example 6); type: in vivo; conditions: 60 mg/kg AAT for 7 weeks, 0.75 unit/kg insulin i.p., 15, 60, 90 and 120 min after insulin, p<0.05
Procedure: FIG. 10. Insulin tolerance test (ITT).
Assessment of body weight, fed and fasting glucose, intraperitoneal glucose tolerance test (IPGTT) and insulin tolerance test (ITT) were performed at 8, 15 weeks of HFD.
Weekly assessment of body weight was performed. IPGTT and ITT were analyzed at 8, 15 weeks of HFD.
Description of murine models: Six week old male C57BL6/J BomTac mice were obtained from Taconic, Hudson, N.Y., and kept at 22° C. on a 12:12-h light-dark cycle, with food and water ad libitum. All mice were placed on a normal rodent diet (ND) D12450B for 1 week and then divided into two groups and fed with ND and high fat diet (HFD) D12492 for 16 weeks. ND (D12450B, calories provided by fat 10%, protein 20%, Carbohydrate 70%) and HFD (D12492, calories provided by fat 60%, protein 20%, Carbohydrate 20%) were from Research Diets, new Brunswick, NJ52.
Insulin tolerance test (ITT): After a 7-day recovery period, an ITT was performed on the same mice. […]
Data Analysis: 1) Mice with HFD feeding and with/without NSP inhibitor treatments awere studied with assessment of body weight, fed and fasting glucose, IPGTT and ITT. Statistical analysis: Differences between groups are determined by ANOVA followed by Turkey post hoc tests or by Student t Test as appropriate. Significance is considered as p<0.05.

[4] = test system: NSPs (PR3/NE/CG); assay: In vitro IGFBP-3 protease assay with NSPs and inhibitors (Example 5); type: biochemical; conditions: recombinant IGFBP-3, NSPs (PR3/NE/CG); example written in present tense
Description: Since PR3, NE and CG appear to be involved in inflammation and metabolic disorders, all three proteases are characterized with respect to IGFBP-3 proteolysis in vitro.

[5] = test system: NSPs (PR3, NE, and CG); assay: NSP-induced IGFBP-3 proteolysis with inhibitors (Example 10); type: biochemical; conditions: Example 10, written in present tense
Description: The biological impact of NSPs (PR3, NE, and CG) on IGFBP-3 proteolysis and the antitumor actions of IGFBP-3/IGFBP-3R signaling is investigated, e.g. to characterize specific mechanisms by which NSPs modulate the biologic impact of IGFBP-3/IGFBP-3R on cell proliferation, apoptosis in CRC. Accordingly, the impact of NSPs on the antitumor and anti-inflammatory functions of IGFBP-3 in a variety of colon cancer cells (HT-29, Caco-2, HCT116 and LoVo) is investigated using recombinant IGFBP-3 (intact or NSP-proteolyzed fragments), NSPs and their inhibitors. The involvement of IGFBP-3R on IGFBP-3's effects is tested by manipulating endogenous IGFBP-3R expression using additional lentiviral-IGFBP-3-GFP, IGFBP-3R siRNAs, Adeno-IGFBP-3R, NSPs and protease inhibitors in the same cell systems.
Human and mouse specific IGFBP-3 antibodies (Abs)20, IGFBP-3R Abs20, IGFBP-3 protease assay, and adeno-, retro- and lenti-viral plasmids transfused with IGFBP-3, IGFBP-3R or their small hairpin RNAs (shRNAs) are utilized in these investigations.
The differential impact of intact IGFBP-3 and IGFBP-3 fragments on induction of apoptosis, cell proliferation in CRC cells is quantified using a Cell death assay, WST assay and qRT-PCR and immunoblotting.

[6] = test system: AOM-DSS-treated mice; assay: CAC mouse model, AOM-DSS-treated mice (Example 10); type: in vivo; conditions: AAT 60 mg/kg once weekly, Example 10, written in present tense
Procedure: Studies are also carried out to determine whether administration of the NSP inhibitor (Aralast) inhibits progression of CRC in a CAC mouse model.
First, serum NSPs, IGFBP-3 and IGFBP-3 proteolysis are determined during CRC development in AOM-DSS-treated mice with/without Aralast administration (60 mg/kg body weight once weekly) (6 mice/group). Serum NSPs (PR3,NE,CG), IGFBP-3, and proteolyzed IGFBP-3 and cytokines ([…], IL-6, IL-1β) are analyzed biweekly using Western immunoblotting, IGFBP-3 protease activity assays and mouse specific ELISAs (ELISA kits for PR3 from USCN life science; NE from Biotang USA; CG from CusaBio; TNF-α from Thermo Scientific; and IGFBP-3 from Sigma).
After sacrificing, mice colons are removed and flushed with phosphate-buffered saline (PBS) for macroscopic inspection. Tumor counts are performed in a blinded fashion. Tumor volume (V) is calculated […] by measuring length (L) and width (W) of the tumor with calipers and using the following formula: V={W×L×[(W+L)/2]}×0.52. Using paraformaldehyde fixed or fresh frozen tissue the proteins/genes involved in cell proliferation and inflammatory signaling are examined using Ki67 staining, apoptosis detection kit (Roche Dignostics GmbH) as well as immunoblotting and qRT-PCR for TNF-α, IL-6, IL-1β, NF-κB, IκBκ, IGFBP-3 and IGFBP-3R. […]

[7] = test system: primary adipocytes, myoblasts and hepatocytes; assay: Insulin sensitizing effects of IGFBP-3 in cells treated with proteases and inhibitors (Example 7); type: cell-based; conditions: Example 7, written in present tense
Description: The levels of the three NSPs and IGFBP-3 protease activity in sera from lean and obese mice fed with CD and HFD, respectively, for 16 weeks are investigated using Western immunoblotting, ELISAs and an IGFBP-3 protease activity assay. Further, the impact of PR3-induced proteolysis and inhibitors (Prolastin and a small peptide inhibitor) on insulin sensitizing effects of IGFBP-3 in primary adipocytes (Invitrogen/Life Technologies, Grand Islands N.Y.), myoblasts and hepatocytes (Eton Bioscience, Research Triangle Park, N.C.) is investigated. The cells are treated with IGFBP-3 or PR3 proteolyzed IGFBP-3 fragments with and without insulin, and analyzed for glucose uptake, levels of insulin receptor substrates (IRSs), glucose transporters (GLUTs), adiponectin (in adipocytes) and intracellular glycogen content (in hepatocytes) using a glucose uptake assay, qRT-PCR, Western immunoblotting and a glycogen assay kit. Further experiments are performed to treat cells with IGFBP-3 and PR3 in the presence and absence of Prolastin or the small peptide inhibitor(s) described herein. The inhibitory effects of NE and CG on IGFBP-3's insulin-sensitizing effects are also determined using similar laboratory methods. The involvement of IGFBP-3R on the insulin signaling pathway is also investigated by manipulating endogenous IGFBP-3R expression using IGFBP-3R siRNAs. […]

[8] = target: T3, NE (Homo sapiens, UniProt P08246); assay: In vitro IGFBP-3 proteolysis by NE, Western immunoblotting; type: biochemical; conditions: recombinant IGFBP-3 100 ng; NE 70 nM, 20 min at 37° C.; FIG. 9B
T3 sequence (P08246 30-267): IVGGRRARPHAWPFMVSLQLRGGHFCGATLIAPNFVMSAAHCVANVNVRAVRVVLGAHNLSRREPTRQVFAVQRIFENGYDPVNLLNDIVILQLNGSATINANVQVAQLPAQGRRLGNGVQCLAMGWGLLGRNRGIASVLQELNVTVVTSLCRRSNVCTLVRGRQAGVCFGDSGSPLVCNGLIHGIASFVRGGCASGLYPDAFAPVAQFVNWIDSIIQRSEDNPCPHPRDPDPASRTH
Procedure: Inhibitory effect of the small peptide on NSP-induced IGFBP-3 proteolysis. […] B. In vitro IGFBP-3 proteolysis by NE and CG. […] Recombinant IGFBP-3 (100 ng) was proteolyzed by treatment with NE (70 nM) and CG (200 nM) for 20 min. at 37° C. The treated samples were subject to Western immunoblotting using polyclonal IGFBP-3 antibodies.

[9] = recombinant IGFBP-3 100 ng, 100 nM PR3, 60 min at 37° C.

Row | Molecule | inhibition of PR3-induced IGFBP-3 proteolysis (Western immunoblot, in words) [1, 9] | inhibition of PR3-induced IGFBP-3 proteolysis (FIG. 4B, in words) ([1]; recombinant IGFBP-3 (100 ng) and PR3 (500 ng)) | inhibition of IGFBP-3 proteolysis by CG (in words) [2] | blood glucose levels in ITT versus PBS control [3] | NSP-induced proteolysis of IGFBP-3 (Example 5, in words) [4] | NSP-induced proteolysis of IGFBP-3 (Example 10, in words) [5] | tumor incidence and size compared with untreated mice [6] | effect on protease-induced IGFBP-3 proteolysis and inhibition of IGFBP-3's normal metabolic function [7] | inhibition of IGFBP-3 proteolysis induced by 100 nM PR3 treatment ([1]; peptide at 0.5 μM, recombinant IGFBP-3 100 ng, 100 nM PR3, 60 min at 37° C.) | inhibitory effect on PR3 activity compared with AAT ([1]; peptide at 20 μM versus 100 nM AAT, 100 nM PR3) | inhibition of IGFBP-3 proteolysis by NE (in words) [8]
1 | α-1-antitrypsin [AAT] | inhibited | completely inhibited; also recorded: Few IGFBP-3 proteolytic fragments were detected | inhibited | significantly lower | blocked | blocked | decreases tumor incidence and size | – | – | – | –
2 | CC(C)[C@@H]1C(=O)N(S(C)(=O)=O)[C@@H]2CCN(C(=O)/C=C/CN3CCCCC3)[C@H]21.Cl [GW311616A, reference compound] | – | – | – | – | – | – | – | reverse this effect | – | – | –
3 | LIRCAML (Synthetic peptide inhibitor) | potent inhibitory effect; also recorded: inhibited IGFBP-3 proteolysis in a dose-dependent manner (0.5-20 μM); also recorded: inhibited IGFBP-3 proteolysis in a does-dependent manner (0.05-1 μM) | – | inhibited IGFBP-3 proteolysis by NE or CG in a dose-dependent manner (0.5-1 μM) | – | blocked | – | – | reverse this effect | more than 50% | comparable to that of 100 nM AAT | inhibited IGFBP-3 proteolysis by NE or CG in a dose-dependent manner (0.5-1 μM)
